Our source for the Kcat/Km values is US20220288223.

In data set [1] the test system is RACPP with substrate GVAYSGA.
In data set [2] the test system is RACPP with substrate PLGC(me)AG.
Data set [3] deals with RACPP with substrate RLQLK(Ac)L.
Data set [4] deals with RACPP with substrate TGRAAA.
The subject of data set [5] is RACPP with substrate TIAHLA.
The subject of data set [6] is RACPP with substrate YGRAAA.
In data set [7] the test system is RACPP with substrate PLGLEEA.

Chain of MMP-9 (chain, as listed by the source): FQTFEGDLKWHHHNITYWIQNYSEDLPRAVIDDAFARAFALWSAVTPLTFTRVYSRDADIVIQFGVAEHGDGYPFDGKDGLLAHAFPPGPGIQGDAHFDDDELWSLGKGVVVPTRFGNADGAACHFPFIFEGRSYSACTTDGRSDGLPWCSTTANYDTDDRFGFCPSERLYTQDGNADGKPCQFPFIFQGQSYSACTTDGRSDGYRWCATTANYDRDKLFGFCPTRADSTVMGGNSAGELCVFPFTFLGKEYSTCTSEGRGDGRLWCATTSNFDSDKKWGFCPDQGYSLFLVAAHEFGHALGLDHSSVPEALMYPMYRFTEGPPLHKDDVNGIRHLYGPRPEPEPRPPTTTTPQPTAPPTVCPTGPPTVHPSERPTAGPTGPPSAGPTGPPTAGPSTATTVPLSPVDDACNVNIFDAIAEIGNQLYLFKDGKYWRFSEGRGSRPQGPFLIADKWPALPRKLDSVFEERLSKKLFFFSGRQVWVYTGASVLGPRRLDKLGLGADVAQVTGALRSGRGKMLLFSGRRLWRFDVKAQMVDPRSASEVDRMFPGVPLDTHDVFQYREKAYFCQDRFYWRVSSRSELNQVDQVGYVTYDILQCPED

In the case of Elastase, the Kcat/Km in data set [1] amounted to 4550; in data set [2] it was 4000; in data set [3], 13400; in data set [4] it was 349; in data set [5], 18200; in data set [6], 943.
On to MMP-9, for which the Kcat/Km was 13500 in data set [2] and 1480 in data set [7].
